Reference: patent publication US20240109955A1

B1: MX1065 (trispecific antibody)
chain 1: QTVVTQEPSFSVSPGGTVTLTCGLSSGSVSTAYFPSWYQQTPGQAPRTLIYGTNTRSSGVPDRFSGSILGNKAALTITGAQADDESDYYCVLYMGRGIVVFGGGTKLTVLGGSSGEIVMTQSPAILSVSPGERATLSCRASQSVAINLAWYQQKPGQAPRLLIYAASSRATGIPGRFSGSGSETNFTLTISSLQSGDFAVYYCQQYITWPPSYTFGQGTKLEIKGGGGSGGSGSGGGGSASGSGEVQLVESGGALIQPGGSLRLSCAASGIIVSANYMSWVRQAPGKGLEWVSVIYSGGSTFYADSVKGRFTISRDNSKNTLYLEMNSLRAEDTAVYYCARDAPILGVSDWGQGTLVTVSSGGSSGQVQLVESGGGVVQPGRSLRLSCAASGFTLSSYGMHWVRQAPGKGLEWVAVISYDGSNKYYVDSVKGRFTISRDNSKNTLYLQMNSLRAEDTAVYYCRWAYWELLPDYYYGMDVWGQGTTVTVSSASGGSGDKTHTCPPCPAPELLGGPSVFLFPPKPKDTLMISRTPEVTCVVVDVSHEDPEVKFNWYVDGVEVHNAKTKPREEQYNSYVVSVLTVLHQDWLNGKEYKCKVSNKALPAPIEKTISKAKGQPREPQVYTLPPCRDELTKNQVSLWCLVKGFYPSDIAVEWESNGQPENNYKTTPPVLDSDGSFFKKLTVDKSRWQQGNVFSCSVLHEALHSHYTQKSLSLSPG
chain 2: QTVVTQEPSFSVSPGGTVTLTCGLSSGSVSTAYFPSWYQQTPGQAPRTLIYGTNTRSSGVPDRFSGSILGNKAALTITGAQADDESDYYCVLYMGRGIVVFGGGTKLTVLGGSSGDTVMTQSPLSLPVTPGEPASISCRSSQSLLNSNGYNYLDWYVQKPGQSPQLLIYLGSNRASGVPDRFSGSGSGTDFTLKISRVEAEDVGVYYCMQPLQTPLFTFGPGTKVEIKGGGGSGGSGSGGGGSASGSGQVTLRESGPALVKPTQTLTLTCTFSGFSLSTRGVCVSWIRQPPGKALEWLAFIDWDDDKYYNTSLKTRLTISKDTSKNQVVLTMTNVHPVDTATYYCARISSHHGSSWCTTFDYWGQGALVTVSAGGSSGQVQLVESGGGVVQPGRSLRLSCAASGFTLSSYGMHWVRQAPGKGLEWVAVISYDGSNKYYVDSVKGRFTISRDNSKNTLYLQMNSLRAEDTAVYYCRWAYWELLPDYYYGMDVWGQGTTVTVSSASGGSGDKTHTCPPCPAPELLGGPSVFLFPPKPKDTLMISRTPEVTCVVVDVSHEDPEVKFNWYVDGVEVHNAKTKPREEQYNSYVVSVLTVLHQDWLNGKEYKCKVSNKALPAPIEKTISKAKGQPREPQVCTLPPSRDELTKNQVSLSCAVKGFYPSDIAVEWESNGQPENNYKTTPPVLDSDGSFFLVSKLTVDKSRWQQGNVFSCSVLHEALHSHYTQKSLSLSPG
B2: MX1066 (trispecific antibody)
chain 1: B1 chain 1
chain 2: DTVMTQSPLSLPVTPGEPASISCRSSQSLLNSNGYNYLDWYVQKPGQSPQLLIYLGSNRASGVPDRFSGSGSGTDFTLKISRVEAEDVGVYYCMQPLQTPLFTFGPGTKVEIKGGSSGQTVVTQEPSFSVSPGGTVTLTCGLSSGSVSTAYFPSWYQQTPGQAPRTLIYGTNTRSSGVPDRFSGSILGNKAALTITGAQADDESDYYCVLYMGRGIVVFGGGTKLTVLGGGGSGGSGSGGGGSASGSGQVQLVESGGGVVQPGRSLRLSCAASGFTLSSYGMHWVRQAPGKGLEWVAVISYDGSNKYYVDSVKGRFTISRDNSKNTLYLQMNSLRAEDTAVYYCRWAYWELLPDYYYGMDVWGQGTTVTVSSGGSSGQVTLRESGPALVKPTQTLTLTCTFSGFSLSTRGVCVSWIRQPPGKALEWLAFIDWDDDKYYNTSLKTRLTISKDTSKNQVVLTMTNVHPVDTATYYCARISSHHGSSWCTTFDYWGQGALVTVSAASGGSGDKTHTCPPCPAPELLGGPSVFLFPPKPKDTLMISRTPEVTCVVVDVSHEDPEVKFNWYVDGVEVHNAKTKPREEQYNSYVVSVLTVLHQDWLNGKEYKCKVSNKALPAPIEKTISKAKGQPREPQVCTLPPSRDELTKNQVSLSCAVKGFYPSDIAVEWESNGQPENNYKTTPPVLDSDGSFFLVSKLTVDKSRWQQGNVFSCSVLHEALHSHYTQKSLSLSPG
B3: MX1056 (trispecific antibody)
chain 1: DTVMTQSPLSLPVTPGEPASISCRSSQSLLNSNGYNYLDWYVQKPGQSPQLLIYLGSNRASGVPDRFSGSGSGTDFTLKISRVEAEDVGVYYCMQPLQTPLFTFGPGTKVEIKGGSSGEIVMTQSPAILSVSPGERATLSCRASQSVAINLAWYQQKPGQAPRLLIYAASSRATGIPGRFSGSGSETNFTLTISSLQSGDFAVYYCQQYITWPPSYTFGQGTKLEIKGGGGSGGSGSGGGGSASGSGEVQLVESGGALIQPGGSLRLSCAASGIIVSANYMSWVRQAPGKGLEWVSVIYSGGSTFYADSVKGRFTISRDNSKNTLYLEMNSLRAEDTAVYYCARDAPILGVSDWGQGTLVTVSSGGSSGQVTLRESGPALVKPTQTLTLTCTFSGFSLSTRGVCVSWIRQPPGKALEWLAFIDWDDDKYYNTSLKTRLTISKDTSKNQVVLTMTNVHPVDTATYYCARISSHHGSSWCTTFDYWGQGALVTVSAASGGSGDKTHTCPPCPAPELLGGPSVFLFPPKPKDTLMISRTPEVTCVVVDVSHEDPEVKFNWYVDGVEVHNAKTKPREEQYNSYVVSVLTVLHQDWLNGKEYKCKVSNKALPAPIEKTISKAKGQPREPQVYTLPPCRDELTKNQVSLWCLVKGFYPSDIAVEWESNGQPENNYKTTPPVLDSDGSFFKKLTVDKSRWQQGNVFSCSVLHEALHSHYTQKSLSLSPG
chain 2: B2 chain 2
B4: MX1057 (trispecific antibody)
chain 1: QTVVTQEPSFSVSPGGTVTLTCGLSSGSVSTAYFPSWYQQTPGQAPRTLIYGTNTRSSGVPDRFSGSILGNKAALTITGAQADDESDYYCVLYMGRGIVVFGGGTKLTVLGGSSGDTVMTQSPLSLPVTPGEPASISCRSSQSLLNSNGYNYLDWYVQKPGQSPQLLIYLGSNRASGVPDRFSGSGSGTDFTLKISRVEAEDVGVYYCMQPLQTPLFTFGPGTKVEIKGGGGSGGSGSGGGGSASGSGQVTLRESGPALVKPTQTLTLTCTFSGFSLSTRGVCVSWIRQPPGKALEWLAFIDWDDDKYYNTSLKTRLTISKDTSKNQVVLTMTNVHPVDTATYYCARISSHHGSSWCTTFDYWGQGALVTVSAGGSSGQVQLVESGGGVVQPGRSLRLSCAASGFTLSSYGMHWVRQAPGKGLEWVAVISYDGSNKYYVDSVKGRFTISRDNSKNTLYLQMNSLRAEDTAVYYCRWAYWELLPDYYYGMDVWGQGTTVTVSSASGGSGDKTHTCPPCPAPELLGGPSVFLFPPKPKDTLMISRTPEVTCVVVDVSHEDPEVKFNWYVDGVEVHNAKTKPREEQYNSYVVSVLTVLHQDWLNGKEYKCKVSNKALPAPIEKTISKAKGQPREPQVYTLPPCRDELTKNQVSLWCLVKGFYPSDIAVEWESNGQPENNYKTTPPVLDSDGSFFKKLTVDKSRWQQGNVFSCSVLHEALHSHYTQKSLSLSPG
chain 2: EIVMTQSPAILSVSPGERATLSCRASQSVAINLAWYQQKPGQAPRLLIYAASSRATGIPGRFSGSGSETNFTLTISSLQSGDFAVYYCQQYITWPPSYTFGQGTKLEIKGGSSGDTVMTQSPLSLPVTPGEPASISCRSSQSLLNSNGYNYLDWYVQKPGQSPQLLIYLGSNRASGVPDRFSGSGSGTDFTLKISRVEAEDVGVYYCMQPLQTPLFTFGPGTKVEIKGGGGSGGSGSGGGGSASGSGQVTLRESGPALVKPTQTLTLTCTFSGFSLSTRGVCVSWIRQPPGKALEWLAFIDWDDDKYYNTSLKTRLTISKDTSKNQVVLTMTNVHPVDTATYYCARISSHHGSSWCTTFDYWGQGALVTVSAGGSSGEVQLVESGGALIQPGGSLRLSCAASGIIVSANYMSWVRQAPGKGLEWVSVIYSGGSTFYADSVKGRFTISRDNSKNTLYLEMNSLRAEDTAVYYCARDAPILGVSDWGQGTLVTVSSASGGSGDKTHTCPPCPAPELLGGPSVFLFPPKPKDTLMISRTPEVTCVVVDVSHEDPEVKFNWYVDGVEVHNAKTKPREEQYNSYVVSVLTVLHQDWLNGKEYKCKVSNKALPAPIEKTISKAKGQPREPQVCTLPPSRDELTKNQVSLSCAVKGFYPSDIAVEWESNGQPENNYKTTPPVLDSDGSFFLVSKLTVDKSRWQQGNVFSCSVLHEALHSHYTQKSLSLSPG
B5: MX1058 (trispecific antibody)
chain 1: B4 chain 1
chain 2: DTVMTQSPLSLPVTPGEPASISCRSSQSLLNSNGYNYLDWYVQKPGQSPQLLIYLGSNRASGVPDRFSGSGSGTDFTLKISRVEAEDVGVYYCMQPLQTPLFTFGPGTKVEIKGGSSGEIVMTQSPAILSVSPGERATLSCRASQSVAINLAWYQQKPGQAPRLLIYAASSRATGIPGRFSGSGSETNFTLTISSLQSGDFAVYYCQQYITWPPSYTFGQGTKLEIKGGGGSGGSGSGGGGSASGSGEVQLVESGGALIQPGGSLRLSCAASGIIVSANYMSWVRQAPGKGLEWVSVIYSGGSTFYADSVKGRFTISRDNSKNTLYLEMNSLRAEDTAVYYCARDAPILGVSDWGQGTLVTVSSGGSSGQVTLRESGPALVKPTQTLTLTCTFSGFSLSTRGVCVSWIRQPPGKALEWLAFIDWDDDKYYNTSLKTRLTISKDTSKNQVVLTMTNVHPVDTATYYCARISSHHGSSWCTTFDYWGQGALVTVSAASGGSGDKTHTCPPCPAPELLGGPSVFLFPPKPKDTLMISRTPEVTCVVVDVSHEDPEVKFNWYVDGVEVHNAKTKPREEQYNSYVVSVLTVLHQDWLNGKEYKCKVSNKALPAPIEKTISKAKGQPREPQVCTLPPSRDELTKNQVSLSCAVKGFYPSDIAVEWESNGQPENNYKTTPPVLDSDGSFFLVSKLTVDKSRWQQGNVFSCSVLHEALHSHYTQKSLSLSPG

Legend:
Assay in all cases: cell-based or functional assay
[1] = target: SARS-CoV-2 spike (S) protein, Omicron sublineage BQ.1 (SARS-CoV-2)
[2] = target: SARS-CoV-2 spike (S) protein, Omicron sublineage BQ.1.1 (SARS-CoV-2)
[3] = target: SARS-CoV-2 spike (S) protein, Omicron sublineage XBB (SARS-CoV-2)
[4] = target: SARS-CoV-2 spike (S) protein, Omicron sublineage BA.4/5 (SARS-CoV-2)
[5] = target: SARS-CoV-2 spike (S) protein, Omicron sublineage BA.2.75.2 (SARS-CoV-2)

Row | Binder | IC50, pseudovirus neutralization [1] | IC80, pseudovirus neutralization [1] | IC50, pseudovirus neutralization [2] | IC80, pseudovirus neutralization [2] | IC50, pseudovirus neutralization [3] | IC80, pseudovirus neutralization [3] | IC50, pseudovirus neutralization [4] | IC80, pseudovirus neutralization [4] | IC50, pseudovirus neutralization [5] | IC80, pseudovirus neutralization [5]
1 | B1 | 0.0335 µg/mL | 0.086 µg/mL | 0.014 µg/mL | 0.0206 µg/mL | 0.0125 µg/mL | 0.0167 µg/mL | – | – | – | –
2 | B2 | 0.0359 µg/mL | 0.0413 µg/mL | 0.0284 µg/mL | 0.0307 µg/mL | 0.0287 µg/mL | 0.0298 µg/mL | – | – | – | –
3 | B3 | 0.013 µg/mL | 0.0368 µg/mL | 0.00584 µg/mL | 0.0419 µg/mL | 0.00713 µg/mL | 0.0236 µg/mL | 0.00412 µg/mL | 0.00589 µg/mL | 0.00253 µg/mL | 0.00992 µg/mL
4 | B4 | 0.0083 µg/mL | 0.0236 µg/mL | 0.0123 µg/mL | 0.0561 µg/mL | 0.00639 µg/mL | 0.0355 µg/mL | 0.00404 µg/mL | 0.00742 µg/mL | 0.00127 µg/mL | 0.00379 µg/mL
5 | B5 | 0.016 µg/mL | 0.032 µg/mL | 0.00449 µg/mL | 0.0285 µg/mL | 0.0142 µg/mL | 0.0318 µg/mL | 0.00274 µg/mL | 0.00551 µg/mL | 0.00403 µg/mL | 0.01 µg/mL
